For orientation: Kd means the equilibrium constant for the complex coming apart. A lower Kd goes with a tighter complex.

From patent publication US12715909 (ENTHERA S R L, dated 2026) come the findings set out here.

The target in one experiment is T1, human IGFBP3 (human, UniProt P17936 28-291).
T1 construct: Bought protein
In words: ELISA, scFv, secondary screening. The method, then:
(§1) At the end of the discovery process, each selection output was screened for antigen-specific antibodies and the binding characteristics of monoclonal antibody clones was analysed. For this purpose, 3072 single colonies were used for scFv antibody production. […] 192 of those ELISA positive clones were selected for a secondary screening. For that purpose, a second batch of scFv were produced and tested on a broader panel of antigens: Streptavidin+biotinylated human IGFBP5, Streptavidin+biotinylated murine IGFBP5, Streptavidin, BSA, Human IGFBP1, Human IGFBP2, Human IGFBP3, Human IGFBP4, Human IGFBP5 and Human IGFBP6. […] Binding to human IGFBP1, human IGFBP2, human IGFBP3, human IGFBP4 and human IGFBP6 was not detected. […] The scFv DNA sequence was amplified by PCR and cloned into YUMAB's mammalian scFv-Fc expression vector, resulting in a genetic fusion of the scFv with a human IgG4 Fc. Bacterial clones with a correctly cloned scFv gene were used for isolation of transfection grade DNA. The DNA was used for the transient transfection of HEK cells which produced and secreted the antibody into the culture medium. The antibodies were purified by affinity chromatography (Protein A) and re-buffered in PBS. The protein concentration was determined by UV/VIS spectrometry and purity was checked by Coomassie staining. 13 of the 15 antibodies could be successfully produced in the scFv-Fc format.
(In general: An ELISA detects its analyte on a solid surface through an enzyme-linked reagent.)

A further experiment deals with T2, human IGFBP4 (human, UniProt P22692 22-258).
T2 construct: Bought protein
T2 sequence (looked up): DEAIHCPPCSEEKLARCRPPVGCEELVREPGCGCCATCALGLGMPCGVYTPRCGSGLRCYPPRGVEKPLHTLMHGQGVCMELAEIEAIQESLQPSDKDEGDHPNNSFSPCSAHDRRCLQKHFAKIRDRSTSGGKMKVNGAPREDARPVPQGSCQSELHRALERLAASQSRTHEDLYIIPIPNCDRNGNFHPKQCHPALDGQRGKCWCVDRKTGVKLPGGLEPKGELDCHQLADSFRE
The experiment in a line: ELISA, scFv, secondary screening. As for the experimental part:
as §1

The next experiment concerns the target T3, human IGFBP6 (human, UniProt P24592 28-240, limits assumed).
T3 construct: Bought protein
T3 sequence (looked up): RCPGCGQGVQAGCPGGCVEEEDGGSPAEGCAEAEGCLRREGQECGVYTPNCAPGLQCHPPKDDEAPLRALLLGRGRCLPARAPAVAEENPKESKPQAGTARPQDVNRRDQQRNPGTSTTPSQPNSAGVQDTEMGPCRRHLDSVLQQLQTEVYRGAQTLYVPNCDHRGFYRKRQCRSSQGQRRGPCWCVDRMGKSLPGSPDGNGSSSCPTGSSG
In words: ELISA, scFv, secondary screening. As for the experimental part: as §1

Experiment [1] deals with T4, mouse IGFBP5 (mouse, UniProt Q07079 20-271).
T4 construct: Bought protein; in solution in BLI; also called mIGFBP-5; murine IGFBP5
The experiment in a line: ELISA, scFv, secondary screening. The method, then: as §1

Experiment [2] concerns the target T5, human IGFBP5 (human, UniProt P24593 21-272).
T5 construct: Bought protein; in BLI it was in solution; also called hIGFBP-5
The experiment in a line: ELISA, scFv, secondary screening. As for the experimental part: as §1

In another experiment the target is T6, human IGFBP1 (human, UniProt P08833 26-259).
T6 construct: Bought protein
T6 sequence (looked up): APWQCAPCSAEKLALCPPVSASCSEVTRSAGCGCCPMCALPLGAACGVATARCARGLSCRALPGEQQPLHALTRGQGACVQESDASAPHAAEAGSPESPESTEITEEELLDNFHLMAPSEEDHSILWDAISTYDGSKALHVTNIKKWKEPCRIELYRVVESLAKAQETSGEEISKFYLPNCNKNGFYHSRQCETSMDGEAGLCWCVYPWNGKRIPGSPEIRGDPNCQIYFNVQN
The experiment in a line: ELISA, scFv, secondary screening. As for the experimental part:
as §1

In the next experiment the target is T7, human IGFBP2 (human, UniProt P18065 37-325, limits assumed).
T7 construct: Bought protein
T7 sequence (looked up): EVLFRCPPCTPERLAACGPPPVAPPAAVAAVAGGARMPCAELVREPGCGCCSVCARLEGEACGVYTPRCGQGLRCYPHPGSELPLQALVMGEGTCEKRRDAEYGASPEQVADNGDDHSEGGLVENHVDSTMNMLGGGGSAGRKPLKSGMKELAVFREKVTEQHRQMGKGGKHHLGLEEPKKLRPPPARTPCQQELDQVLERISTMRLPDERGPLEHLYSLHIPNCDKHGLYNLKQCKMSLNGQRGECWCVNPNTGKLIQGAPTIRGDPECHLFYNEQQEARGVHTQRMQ
In words: ELISA, scFv, secondary screening. The method, then: as §1

For experiment [3], the target named is T4, mouse IGFBP5. The experiment in a line: BLI (Octet/BLItz), mAb captured via Fc on AHC biosensor, antigen in solution. As for the experimental part:
(§2) To assess the binding affinity in more detail, affinity measurements were performed using Biomolecular Interaction Analysis performed by an Octet platform (BLItz System), which is a Biolayer Interferometry (BLI) platform. To establish the assay, the target monoclonal antibody (mAb, 2 identical antigen binding moieties, 2 μg/ml in 1% BSA containing 0.05% Tween 20) was immobilized via Fc on the via AHC biosensor and the interaction with the antigen human IGFBP5 (R&D, cat n° 875-B5) and mouse IGFBP5 (R&D, cat n° 578-B5) at different concentration were measured.
For orientation: In BLI a coated tip is dipped into the sample, and binding shifts an interference pattern.

Experiment [4] deals with T5, human IGFBP5. The experiment is described as above. The method, then: as §2

T4 sequence (Q07079 20-271 limits assumed): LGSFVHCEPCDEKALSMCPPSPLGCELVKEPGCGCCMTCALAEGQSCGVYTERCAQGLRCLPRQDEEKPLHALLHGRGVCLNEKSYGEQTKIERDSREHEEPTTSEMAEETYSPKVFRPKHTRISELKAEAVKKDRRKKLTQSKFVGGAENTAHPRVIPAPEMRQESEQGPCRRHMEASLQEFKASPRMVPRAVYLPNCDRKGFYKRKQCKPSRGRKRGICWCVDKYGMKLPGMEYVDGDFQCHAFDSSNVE
T1 sequence (P17936 28-291 limits assumed): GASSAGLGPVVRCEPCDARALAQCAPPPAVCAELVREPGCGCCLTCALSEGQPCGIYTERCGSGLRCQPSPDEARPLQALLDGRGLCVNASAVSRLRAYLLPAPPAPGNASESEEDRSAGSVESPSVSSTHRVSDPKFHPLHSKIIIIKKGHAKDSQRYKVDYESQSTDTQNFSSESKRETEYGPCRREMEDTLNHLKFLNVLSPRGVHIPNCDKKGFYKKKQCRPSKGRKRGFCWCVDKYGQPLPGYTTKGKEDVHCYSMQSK
T5 sequence (P24593 21-272 limits assumed): as the sequence (Q07079 20-271 limits assumed) above, with G87R, T90V, V116I, V157I, P159S, F183L, A245T counted along it

B1: F04 scFv (scFv, V domains shown)
VH: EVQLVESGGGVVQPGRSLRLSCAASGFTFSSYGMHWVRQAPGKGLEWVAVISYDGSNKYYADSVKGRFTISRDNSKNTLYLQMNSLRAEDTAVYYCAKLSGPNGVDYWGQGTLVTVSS
VL: SSELTQDPSVSVALGQTVTITCQGDSVRKYYTNWYQQKPGQAPILVLYGKNYRPSGIPDRFSGSTSGDTAYLTITGAQAEDAADYYCHSRDTSDIHLNVFGTGTKVTVL
notes: scFv as screened by ELISA
Consider B1, for which the binding result with human IGFBP3 is on record as “no binding”; in the experiment with human IGFBP4 it was “no binding”; with human IGFBP6, “no binding”; with mouse IGFBP5 [1], “binds”; in the experiment with human IGFBP5 [2] it was “binds”; with human IGFBP1 it was “no binding”. Moreover, the binding result with human IGFBP2 is “no binding”.

B2: E05 scFv (scFv, V domains shown)
VH: EVQLVESGGGLVQPGGSLKLSCAASGFTFSGYGMNWVRQAPGKGLEWVSYVGSSSSTIYYADSVKGRFTISRDNANNSLYLQMNSLRAEDTAVYYCARGLGGNWGQGTMVTVSS
VL: QPGLTQPPSASGAPGQRVTISCSGSRSNIGSNYVHWYQQLPGTAPKLIIYRNDQRPSGVPARFSASKSGTSASLAISGLRSEDEADYYCAAWDDGLSVLFGGGTKLTVL
notes: scFv as screened by ELISA
With B2, the binding result with human IGFBP3 is recorded as “no binding”; with human IGFBP4, “no binding”; in the experiment with human IGFBP6 it was “no binding”; with mouse IGFBP5 [1], “binds”; with human IGFBP5 [2], “binds”; with human IGFBP1, “no binding”. Besides, the binding result with human IGFBP2 is on record as “no binding”.

B3: A09 scFv (scFv, V domains shown)
VH: QVQLVESGAEVKKPGASVKVSCKASGYTFTSYGISWVRQAPGQGLEWMGWISAYNGNTNYAQKLQGRVTMTTDTSTSTAYMELRSLRSDDTAVYYCAREWELLGGLDYWGQGTLVTVSS
VL: QSALTQPASVSGSPGQSITISCTGTSSDVGGYNYVSWYQQHPGKAPKLMIYEVSNRPSGVSNRFSGSKSGNTASLTISGLQAEDEADYYCSSYTSSSTVVFGGGTKLTVL
B3: the binding result with human IGFBP3 is recorded as “no binding”; in the experiment with human IGFBP4, “no binding”; with human IGFBP6, “no binding”; with mouse IGFBP5 [1] it was “binds”; with human IGFBP5 [2] it was “binds”; with human IGFBP1, “no binding”. Moreover, the binding result with human IGFBP2 was “no binding”.

B4: B09 full length mAb (antibody, V domains shown)
VH: QVQLVQSGAEVKKPGASVKVSCKASGYTFTSYGISWVRQAPGQGLEWMGWISAYNGNTNYAQKLQGRVTMTTDTSTSTAYMELRSLRSDDTAVYYCARDLAVGTHGDYWGQGTLVTVSS
VL: QSALTQPASVSGSPGQSITISCTGTSSDVGGYNYVSWYQQHPGKAPKLMIYEVSNRPSGVSNRFSGSKSGNTASLTISGLQAEDEADYYCSSYTSSSTLEVVFGGGTKLTVL
notes: also called anti-IGFBP5 mAb B09
B4: the Kd in the experiment with mouse IGFBP5 [3] and with human IGFBP5 [4] was 0.1 nM throughout.

B5: G01 scFv (scFv, V domains shown)
VH: QVQLVQSGAEVKKPGSSVKVSCKASGGTFSSYAISWVRQAPGQGLEWMGGIIPIFGTANYAQKFQGRVTITADESTSTAYMELSSLRSEDTAVYYCASITEGAFDYWGQGTLVTVSS
VL: AIQLTQSPSTLSASVGDRVTITCRASRTVGSWLAWYQQKPGKAPKLLIYDASNLQSGVPSRFSGSGSGTEFTLTISSLQPDDLSTYYCQQYNSSPYTFGQGTKVEIK
notes: scFv as screened by ELISA
As to B5, the binding result with human IGFBP3 is given as “no binding”; with human IGFBP4, “no binding”; with human IGFBP6, “no binding”; with mouse IGFBP5 [1], “binds”; with human IGFBP5 [2], “binds”; with human IGFBP1 it was “no binding”. For the same molecule, the binding result in the experiment with human IGFBP2 is recorded as “no binding”.
